Here are results for three molecules from patent US20030235857A1 (WHITEHEAD INSTITUTE FOR BIOMEDICAL RESEARCH A DELAWARE, published 2003).

First the molecules themselves.
T1: Sfl1 fused to the Gal4 activation domain (Saccharomyces cerevisiae, UniProt P20134 1-766, limits assumed)
T1 construct: also called YOR140w
T1 sequence (looked up): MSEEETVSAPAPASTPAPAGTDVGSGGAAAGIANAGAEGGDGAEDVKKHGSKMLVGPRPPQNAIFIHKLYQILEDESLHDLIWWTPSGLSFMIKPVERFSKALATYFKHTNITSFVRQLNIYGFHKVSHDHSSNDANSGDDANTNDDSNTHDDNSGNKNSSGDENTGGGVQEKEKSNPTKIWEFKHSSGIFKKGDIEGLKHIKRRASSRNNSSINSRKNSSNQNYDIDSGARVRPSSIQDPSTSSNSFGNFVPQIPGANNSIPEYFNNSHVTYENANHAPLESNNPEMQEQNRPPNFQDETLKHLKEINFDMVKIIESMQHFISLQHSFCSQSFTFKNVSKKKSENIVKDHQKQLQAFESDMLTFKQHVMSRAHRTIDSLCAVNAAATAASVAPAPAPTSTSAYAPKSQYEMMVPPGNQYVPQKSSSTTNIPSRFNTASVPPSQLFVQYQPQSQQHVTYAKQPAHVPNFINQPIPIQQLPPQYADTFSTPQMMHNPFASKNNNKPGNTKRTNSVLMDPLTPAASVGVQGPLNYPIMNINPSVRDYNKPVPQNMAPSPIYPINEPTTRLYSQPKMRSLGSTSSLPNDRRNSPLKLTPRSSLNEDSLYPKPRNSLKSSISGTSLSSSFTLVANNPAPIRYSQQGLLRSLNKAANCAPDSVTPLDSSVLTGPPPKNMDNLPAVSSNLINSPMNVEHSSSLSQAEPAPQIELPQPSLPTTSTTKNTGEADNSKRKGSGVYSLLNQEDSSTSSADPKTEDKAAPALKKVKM

B1: Mga1 fused to the Gal4 activation domain (other, Saccharomyces cerevisiae, UniProt P53050 1-456, looked up, not shown: large carriers)
chain: MQPKTFVHQLHAILLEPEVNKWIYWSPTDNTVFFLKPYDPNFSTHVLKRYFKHGNVNSFVRQLHMYGFHKLSHPSPDQSSANNGNVKELVEWKFTHPSGFFFKEANAGILNKIQRKSTGVGKDGKRKNILSPISVSYVDASRLNVLSQQSGPVSAREPSNMFMGSPVHYSTSQSPPHISIPQQQQSSGPYLISSLPPQQPTVNMMRRQSISARMMNSYDYPNQFSTQDSIVQPQQPQQVLSPQALSGPPMKKSGTLSSTDDLKTTSLPIVNYPMPYHPGAFAQQQQQQQQPLPTVPPYSSYSTPFPSMMNSLSNSASNSPALGVCNNNVTLPKKSNISERQALDNHIQTLKNSLSTITDLIEKHINSASQDENKTLTNDAMNKDLRTSLSLLQNSKEEIIQLESKWMSMQSVKTTALPLQETTNTSSTLTSLTSSIIPKSIPIITKGEVATKPASY
notes: also called YGR249w
B2: Tpk3 fused to the Gal4 DNA binding domain (enzyme, UniProt P04386 1-147, looked up)
chain: MKLLSSIEQACDICRLKKLKCSKEKPKCAKCLKNNWECRYSPKTKRSPLTRAHLTEVESRLERLEQLFLLIFPREDLDMILKMDSLQDIKALLTGLFVQDNVNKDAVTDRLASVETDMPLTLRQHRISATSSSEESSNKGQRQLTVSMYVDPMNNNEIRKLSITAKTETTPDNVGQDIPVNAHSVHEECSSNTPVEINGRNSGKLKEEASAGICLVKKPMLQYRDTSGKYSLSDFQILRTLGTGSFGRVHLIRSNHNGRFYALKTLKKHTIVKLKQVEHTNDERRMLSIVSHPFIIRMWGTFQDSQQVFMVMDYIEGGELFSLLRKSQRFPNPVAKFYAAEVCLALEYLHSKDIIYRDLKPENILLDKNGHIKITDFGFAKYVPDVTYTLCGTPDYIAPEVVSTKPYNKSVDWWSFGVLIYEMLAGYTPFYNSNTMKTYENILNAELKFPPFFHPDAQDLLKKLITRDLSERLGNLQNGSEDVKNHPWFNEVIWEKLLARYIETPYEPPIQQGQGDTSQFDRYPEEEFNYGIQGEDPYMDLMKEF
notes: Two-hybrid bait used for retesting positive clones; also called YKL166c
B3: Tpk1 fused to the Gal4 DNA binding domain (enzyme, UniProt P04386 1-147, looked up)
chain: MKLLSSIEQACDICRLKKLKCSKEKPKCAKCLKNNWECRYSPKTKRSPLTRAHLTEVESRLERLEQLFLLIFPREDLDMILKMDSLQDIKALLTGLFVQDNVNKDAVTDRLASVETDMPLTLRQHRISATSSSEESSNKGQRQLTVSMSTEEQNGGGQKSLDDRQGEESQKGETSERETTATESGNESKSVEKEGGETQEKPKQPHVTYYNEEQYKQFIAQARVTSGKYSLQDFQILRTLGTGSFGRVHLIRSRHNGRYYAMKVLKKEIVVRLKQVEHTNDERLMLSIVTHPFIIRMWGTFQDAQQIFMIMDYIEGGELFSLLRKSQRFPNPVAKFYAAEVCLALEYLHSKDIIYRDLKPENILLDKNGHIKITDFGFAKYVPDVTYTLCGTPDYIAPEVVSTKPYNKSIDWWSFGILIYEMLAGYTPFYDSNTMKTYEKILNAELRFPPFFNEDVKDLLSRLITRDLSQRLGNLQNGTEDVKNHPWFKEVVWEKLLSRNIETPYEPPIQQGQGDTSQFDKYPEEDINYGVQGEDPYADLFRDF
notes: Two-hybrid bait used for retesting positive clones

Test in all cases: yeast two-hybrid, GAL4-ADE2 reporter, growth without adenine
Test [1] addresses B3. The text has this: (§1) Other additional members of these signal transduction cascades are identified through a variety of standard techniques. First, enhancers and suppressors of phenotypes of mutant strains are isolated using standard techniques known to those skilled in the art (Ausubel, supra). Second, proteins which interact with pathway members are isolated using yeast two-hybrid methods (Fields and Song, Nature 1989, 340:245-246; Chien et al., Proc. Natl. Acad. Sci. USA 1991, 88:9578-9582; Brent and Finley, Annu. Rev. Genet. 1997, 31:663-704). In one example, proteins which specifically interact with an A kinase catalytic subunit Tpk2, and not with related proteins Tpk1 and Tpk3 were identified and shown to be important for pseudohyphal development. […] Similarly, haploid tpk2 mutants were defective for invasive growth and tpk3 mutants were hyperinvasive (FIG. 2A). tpk1 mutants were indistinguishable from wild-type strains as both haploids and diploids. The accentuated filamentation and invasion phenotypes of tpk3 mutants required a functional Tpk2 as tpk2 tpk3 mutants had the same phenotype as tpk2 single mutants. As Tpk2 appeared to be uniquely required for pseudohyphal growth, we used a two-hybrid screen to identify proteins that interact specifically with Tpk2. The intact open reading frame of TPK2 was fused to coding sequence for the Gal4 DNA binding domain and used to screen a library of yeast genomic fragments fused to coding sequence for the Gal4 transcriptional activation domain. Activation of the GAL4-ADE2 reporter, leading to adenine-independent growth of an ade-strain was taken as preliminary evidence for an interaction between the Gal4 DNA binding domain:Tpk2 fusion and the Tpk2 interacting protein fused to the Gal4 activation domain. Positive clones were then retested in the two-hybrid assay with Tpk1, Tpk2, Tpk3, or Dph1 fused to the Gal4 DNA binding domain. DPH1, a gene required for diphthamide biosynthesis, as used to control for interactions that were not specific to the PKA isoforms.

Test [2] deals with B2.
Text: as §1

The target in test [3] is T1, Sfl1 fused to the Gal4 activation domain.
Text: as §1

Consider B1, for which the binding result in test [1] and in test [2] was “no binding” throughout.

B2: the binding result in test [3] is given as “no binding”.

As to B3, the binding result in test [3] is recorded as “no binding”.
